The results in this text go back to patent US20040235717A1 (published 2004).

The target in experiment [1] is T1, androgen receptor, wild type, full length (UniProt P10275 1-920).
T1 construct: also called AR; wtAR
T1 sequence (looked up): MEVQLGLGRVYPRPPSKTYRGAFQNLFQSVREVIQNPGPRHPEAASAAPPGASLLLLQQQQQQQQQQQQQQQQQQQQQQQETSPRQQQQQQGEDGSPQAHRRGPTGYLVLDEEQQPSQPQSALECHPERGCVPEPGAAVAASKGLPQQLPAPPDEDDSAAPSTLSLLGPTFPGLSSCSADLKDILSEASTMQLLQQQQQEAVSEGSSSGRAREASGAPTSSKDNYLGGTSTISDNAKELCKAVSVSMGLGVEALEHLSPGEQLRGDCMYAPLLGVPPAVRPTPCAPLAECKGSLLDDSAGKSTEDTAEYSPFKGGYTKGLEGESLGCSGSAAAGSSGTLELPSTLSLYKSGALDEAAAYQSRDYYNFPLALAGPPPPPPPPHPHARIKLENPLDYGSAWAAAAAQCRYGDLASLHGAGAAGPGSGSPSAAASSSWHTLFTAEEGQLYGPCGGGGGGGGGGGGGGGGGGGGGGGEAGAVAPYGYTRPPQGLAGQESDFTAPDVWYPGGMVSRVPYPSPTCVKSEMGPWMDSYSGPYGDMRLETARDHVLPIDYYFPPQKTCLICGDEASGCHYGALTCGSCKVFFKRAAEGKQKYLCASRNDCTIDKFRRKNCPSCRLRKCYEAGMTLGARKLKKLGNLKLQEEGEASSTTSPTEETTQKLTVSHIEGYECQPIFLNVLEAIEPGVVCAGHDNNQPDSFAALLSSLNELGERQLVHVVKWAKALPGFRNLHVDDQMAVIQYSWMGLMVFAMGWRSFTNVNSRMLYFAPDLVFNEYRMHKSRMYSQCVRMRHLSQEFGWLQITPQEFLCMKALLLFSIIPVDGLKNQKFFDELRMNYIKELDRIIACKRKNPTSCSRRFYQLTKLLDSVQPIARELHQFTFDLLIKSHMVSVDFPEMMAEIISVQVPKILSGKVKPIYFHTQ
The experiment can be described thus: GST pull-down of 35S-AR with PTEN deletion mutants.

For experiment [2], the target named is T1, androgen receptor, wild type, full …. The experiment can be described thus: co-immunoprecipitation in PC-3(AR)2 cells overexpressing Flag-Smad3, Flag-Smad4 and AR.
Experiment [3] shares this target. The experiment can be described thus: anti-Smad3 immunoprecipitation from PC-3(AR)2 cells, immunoblot for AR. (Immunoblotting shows a protein as a band on a membrane.)
The target is the same in experiment [4]. The experiment can be described thus: co-immunoprecipitation in prostate cancer cells.

B1: GST-PTEN-#3 (aa 253-403) (other, UniProt P60484 253-403, looked up)
chain: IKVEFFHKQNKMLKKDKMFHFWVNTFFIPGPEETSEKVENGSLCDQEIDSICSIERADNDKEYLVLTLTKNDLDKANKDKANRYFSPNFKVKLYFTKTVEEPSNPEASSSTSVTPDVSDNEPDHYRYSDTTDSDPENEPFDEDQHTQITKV
notes: range 253-403; not shown: glutathione S-transferase (GST), pGEX-3x vector
Consider B1, for which the binding result in experiment [1] was “no binding”.

B2: N-terminal Flag-tagged, full-length Smad3 (other, human, UniProt P84022 1-425, looked up)
chain: MSSILPFTPPIVKRLLGWKKGEQNGQEEKWCEKAVKSLVKKLKKTGQLDELEKAITTQNVNTKCITIPRSLDGRLQVSHRKGLPHVIYCRLWRWPDLHSHHELRAMELCEFAFNMKKDEVCVNPYHYQRVETPVLPPVLVPRHTEIPAEFPPLDDYSHSIPENTNFPAGIEPQSNIPETPPPGYLSEDGETSDHQMNHSMDAGSPNLSPNPMSPAHNNLDLQPVTYCEPAFWCSISYYELNQRVGETFHASQPSMTVDGFTDPSNSERFCLGLLSNVNRNAAVELTRRHIGRGVRLYYIGGEVFAECLSDSAIFVQSPNCNQRYGWHPATVCKIPPGCNLKIFNNQEFAALLAQSVNQGFEAVYQLTRMCTIRMSFVKGWGAEYRRQTVTSTPCWIELHLNGPLQWLDKVLTQMGSPSIRCSSVS
notes: Expressed in PC-3 or PC-3(AR)2 cells; also called Flag-Smad3; FLAG-Smad3; not shown: N-terminal Flag tag
Turning to B2, the binding result in experiment [2] is reported as “binds”.

B3: Smad3 (full length, untagged) (other, human, UniProt P84022 1-425, looked up)
chain: MSSILPFTPPIVKRLLGWKKGEQNGQEEKWCEKAVKSLVKKLKKTGQLDELEKAITTQNVNTKCITIPRSLDGRLQVSHRKGLPHVIYCRLWRWPDLHSHHELRAMELCEFAFNMKKDEVCVNPYHYQRVETPVLPPVLVPRHTEIPAEFPPLDDYSHSIPENTNFPAGIEPQSNIPETPPPGYLSEDGETSDHQMNHSMDAGSPNLSPNPMSPAHNNLDLQPVTYCEPAFWCSISYYELNQRVGETFHASQPSMTVDGFTDPSNSERFCLGLLSNVNRNAAVELTRRHIGRGVRLYYIGGEVFAECLSDSAIFVQSPNCNQRYGWHPATVCKIPPGCNLKIFNNQEFAALLAQSVNQGFEAVYQLTRMCTIRMSFVKGWGAEYRRQTVTSTPCWIELHLNGPLQWLDKVLTQMGSPSIRCSSVS
notes: also called endogenous Smad3; [35S]-labeled Smad3
Turning to B3, the binding result in experiment [3] was “binds”.

B4: N-terminal Flag-tagged, full-length Smad4 (other, human, UniProt Q13485 1-552, looked up)
chain: MDNMSITNTPTSNDACLSIVHSLMCHRQGGESETFAKRAIESLVKKLKEKKDELDSLITAITTNGAHPSKCVTIQRTLDGRLQVAGRKGFPHVIYARLWRWPDLHKNELKHVKYCQYAFDLKCDSVCVNPYHYERVVSPGIDLSGLTLQSNAPSSMMVKDEYVHDFEGQPSLSTEGHSIQTIQHPPSNRASTETYSTPALLAPSESNATSTANFPNIPVASTSQPASILGGSHSEGLLQIASGPQPGQQQNGFTGQPATYHHNSTTTWTGSRTAPYTPNLPHHQNGHLQHHPPMPPHPGHYWPVHNELAFQPPISNHPAPEYWCSIAYFEMDVQVGETFKVPSSCPIVTVDGYVDPSGGDRFCLGQLSNVHRTEAIERARLHIGKGVQLECKGEGDVWVRCLSDHAVFVQSYYLDREAGRAPGDAVHKIYPSAYIKVFDLRQCHRQMQQQAATAQAAAAAQAAAVAGNIPGPGSVGGIAPAISLSAAAGIGVDDLRRLCILRMSFVKGWGPDYPRQSIKETPCWIEIHLHRALQLLDEVLHTMPIADPQPLD
notes: Expressed in PC3-AR2 cells; also called Flag-Smad4; FLAG-Smad4; not shown: N-terminal Flag tag
Regarding B4, the binding result in experiment [2] is given as “binds”.

B5: PTEN (phosphatase and tensin homolog deleted on chromosome ten), wild type, full length (enzyme)
chain: not shown
notes: Stood as in vitro expressed 35S-PTEN, as Dox-induced PTEN in LNCaP PTEN-C1 cells, as endogenous PTEN of CWR22 cells and as transfected PTEN in COS-1 cells; also called [35S]-PTEN; pCDNA3-PTEN
Turning to B5, in experiment [4], the binding result is “binds”.

B6: GST-PTEN-#1 (aa 1-107) (other, UniProt P60484 1-107, looked up)
chain: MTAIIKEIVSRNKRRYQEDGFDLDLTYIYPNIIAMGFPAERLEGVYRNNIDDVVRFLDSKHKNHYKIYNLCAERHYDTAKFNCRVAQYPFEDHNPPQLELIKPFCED
notes: not shown: glutathione S-transferase (GST), pGEM-KG vector
With B6, the binding result in experiment [1] is reported as “no binding”.
